# Source: publication doi:10.1101/506113 (bioRxiv, 2018)
# Molecular target: LgB-NIX (NIX with Large BiT at its N-terminal end) (UniProt O60238 1-219)
# Test: split reporter
# LgB-NIX (NIX with Large BiT at its N-terminal end), sequence (O60238 whole entry): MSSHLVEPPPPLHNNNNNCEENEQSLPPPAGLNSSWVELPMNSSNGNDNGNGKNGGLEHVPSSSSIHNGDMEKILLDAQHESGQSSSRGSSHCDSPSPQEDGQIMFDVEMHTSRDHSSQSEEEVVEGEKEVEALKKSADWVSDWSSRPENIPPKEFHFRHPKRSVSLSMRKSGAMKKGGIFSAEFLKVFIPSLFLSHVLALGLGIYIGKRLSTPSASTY
binder,measurement,value
vIRF-1-SmB (vIRF-1 with Small BiT at its C-terminal end) (natural protein) MDPGQRPNPFGAPGAIPKKPCLSQGSPGTSGSGAPCDEPSRSESPGEGPSGTGGSAAAGDITRQAVVAAITEWSRTRQLRISTGASEGKASIKDWIVCQVNSGKFPGVEWEDEERTRFRIPVTPLADPCFEWRRDGELGVVYIRERGNMPVDASFKGTRGRRRMLAALRRTRGLQEIGKGISQDGHHFLVFRVRKPEEEQCVECGVVAGAVHDFNNMARLLQEGFFSPGQCLPGEIVTPVPSCTTAEGQEAVIDWGRLFIRMYYNGEQVHELLTTSQSGCRISSALRRDPAVHYCAVGSPGQVWLPNVPNLACEIAKRELCDTLDACAKGILLTSSCNGIFCVCYHNGPVHFIGNTVPPDSGPLLLPQGKPTRIFNPNTFLVGLANSPLPAPSHVTCPLVKLWLGKPVAVGKLEPHAPSPRDFAARCSNFSDACVVLEIMPKPLWDAMQ,fold luminescence over HT-SmB with LgB-NIX,10 fold
